Assays:
Trp repressor (TrpR) [1] = target: T1, Trp repressor (TrpR) (UniProt P0A881 P0A881:2-108); assay: FRET; specificity control
Lac repressor (LacR) = Lac repressor (LacR) (UniProt P03023 P03023:1-360); assay: FRET; 0-200 nM LacR, saturation ~150 nM, 50 nM DNA, 25 C; specificity confirmed with 5 mM IPTG; details: chain copies: 4; label: dT-fluorescein (LAC2), dT-dabcyl (LAC4); two half-site duplexes with short complementary overhangs
Method: The oligonucleotides were purified using reverse phase chromatography on RPC column (Amersham Pharmacia Biotech, Piscataway, N.J.) as previously described (Heyduk, E., and Heyduk, T. Anal. Biochem. 248, 216-227, 1997). The fractions containing the oligonucleotides were dried in Vacuum centrifuge concentrator and were dissolved in 50 μl of water. The concentration of the stock solutions of oligonucleotides was determined by recording the UV-VIS absorption spectrum of a small aliquot of the stock solution diluted to 400 μl. The LAC1 oligonucleotide (SEQ ID NO:12) was hybridized with the LAC4 oligonucleotide (SEQ ID NO:15) to generate the LAC1/LAC4 construct and the LAC2 oligonucleotide (SEQ ID NO:13) was hybridized with the LAC3 oligonucleotide (SEQ ID NO:14) to generate the LAC2/LAC3 construct. […] All subsequent fluorescence measurements were performed at 25° C. in 50 mM Tris/HCl (pH 8.0), 100 mM NaCl, 1 mM EDTA, and 0.1 mg/ml BSA. […]
The fluorescence spectra of 50 nM of LAC1/LAC4 plus LAC2/LAC3 were recorded in the absence of LacR (FIG. 14, curve 1) and in the presence of varying amounts of LacR in a range from 0-200 nM (FIG. 14, curves 2-7). Fluorescence signal quenching was proportional to the amount of LacR added to the reaction mixture, with saturation occurring at approximately 150 nM of LacR (FIG. 14, inset). […]

[2] = target: T2, CAP (cAMP receptor protein) (Escherichia coli, UniProt P0ACJ8 P0ACJ8:2-210); assay: FRET; two-color assay, CAP only, no change in fluorescein signal; 200 uM cAMP; details: chain copies: 2; label: dT-fluorescein (TRP2), dT-dabcyl (TRP4); two half-site duplexes with short complementary overhangs
T2 sequence (P0ACJ8 2-210, one chain of several): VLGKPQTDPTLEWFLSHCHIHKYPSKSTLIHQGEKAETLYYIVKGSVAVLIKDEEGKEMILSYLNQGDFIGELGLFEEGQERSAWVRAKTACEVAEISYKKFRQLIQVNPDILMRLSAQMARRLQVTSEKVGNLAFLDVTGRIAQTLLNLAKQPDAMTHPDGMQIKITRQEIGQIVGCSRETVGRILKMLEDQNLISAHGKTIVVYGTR
Method: Nucleic acid constructs specific for each of the proteins to be detected may be labeled with probes that emit light at different wavelengths. In this example, the reaction mixture contained nucleic acid constructs labeled with 7-diethylaminocoumarin-3-carboxylic acid for detecting CAP protein (described in EXAMPLE 2) and nucleic acid constructs labeled with fluorescein for detecting TrpR protein (described in EXAMPLE 6). Specifically, 100 nM CAP5/CAP3, 120 nM CAP1/CAP4, 100 nM TRP2/TRP3, and 120 nM TRP1/TRP4 duplexes were present in the reaction mixture.
All measurements were performed at 15° C. in 10 mM potassium phosphate (pH 7.6), 50 mM NaCl, 0.1 mM EDTA, 4 mM tryptophan, 200 μM cAMP, 10% glycerol, 0.01% sodium azide and 1.0 mg/ml BSA. The fluorescence spectra with the excitation at 433 nm (excitation of 7-diethylaminocoumarin-3-carboxylic acid, FIG. 17A) and with the excitation at 490 nm (excitation of fluorescein, FIG. 17B) were recorded in the absence of the proteins (curves 1), in the presence of CAP only (curves 2), in the presence of TrpR only (curves 3), and in the presence of both CAP and TrpR (curves 4). In the presence of only CAP there was no change in the fluorescein signal (FIG. 17B, curve 2) whereas about 60% quenching of the 7-diethylaminocoumarin-3-carboxylic acid signal was observed (FIG. 17A, curve 2). […]

p53 = p53 (Homo sapiens, UniProt P04637 P04637:1-393); assay: FRET; 0-130 nM p53, quenching proportional to p53, 50 mM NaCl, 100 nM nonspecific 30-bp DNA, 25 C; details: tags: full-length, expressed in bacteria (gift of K. S. Matthews); chain copies: 4; label: dT-fluorescein (P2), dT-dabcyl (P4); two half-site duplexes with short complementary overhangs
Chain of p53 (P04637 whole entry, one chain of several): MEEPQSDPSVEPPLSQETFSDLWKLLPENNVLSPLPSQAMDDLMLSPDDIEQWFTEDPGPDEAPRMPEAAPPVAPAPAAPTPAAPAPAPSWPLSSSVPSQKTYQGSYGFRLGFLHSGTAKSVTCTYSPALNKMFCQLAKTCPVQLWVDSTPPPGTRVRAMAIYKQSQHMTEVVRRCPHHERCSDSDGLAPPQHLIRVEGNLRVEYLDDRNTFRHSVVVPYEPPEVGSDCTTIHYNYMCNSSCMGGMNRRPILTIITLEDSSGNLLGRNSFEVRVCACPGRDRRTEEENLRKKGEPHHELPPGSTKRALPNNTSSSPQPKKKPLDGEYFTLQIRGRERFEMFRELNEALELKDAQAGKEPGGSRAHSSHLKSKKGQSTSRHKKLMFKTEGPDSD
Method: The oligonucleotides were purified using reverse phase chromatography on a RPC column as described previously (Heyduk, E., and Heyduk, supra). The fractions containing the oligonucleotides were dried in Vacuum centrifuge concentrator and were dissolved in 50 μl of water. The concentrations of the stock solutions of oligonucleotides were determined by recording the UV-VIS absorption spectrum of a small aliquot of the stock solution diluted to 400 μl. The P1 oligonucleotide (SEQ ID NO:20) was hybridized with the P4 oligonudeotide (SEQ ID NO:23) to generate the P1/P4 duplex construct and the P2 oligonucleotide (SEQ ID NO:21) was hybridized with the P3 (SEQ ID NO:22) oligonucleotide to generate the P2/P3 duplex construct. For the hybridization, the appropriate oligonucleotides were mixed at 10 μM concentration in 100 μl of 50 mM Tris/HCl (pH 8.0), 100 mM NaCl, 1 mM EDTA, heated for 1 min at 95° C. and then cooled to 25° C. for 1 hr. All subsequent fluorescence measurements were performed at 25° C. in 50-mM potassium phosphate (pH 7.5), 50 mM NaCl, and 0.5 mg/ml BSA containing also 100 nM of a nonspecific 30-bp DNA duplex. The DNA duplexes obtained upon hybridization are illustrated in FIG. 18. The duplexes contain a repeat of 10 bp PuPuPuC(A/T)(T/A)GPyPyPy (SEQ ID NO:24) motif split between the two DNA duplexes. […]

Trp repressor (TrpR) [3] = target: T1, Trp repressor (TrpR); assay: FRET; 400 nM TrpR, no change
[4] = target: T2, CAP (cAMP receptor protein); assay: competition; unlabeled duplex blocks CAP detection; 200 uM cAMP, 50 mM NaCl; details: chain copies: 2
Source text: (§1) The fluorescence donor (fluorescein) and the fluorescence acceptor (dabcyl) were introduced into DNA fragments using commercially available dT-fluorescein and dT-dabcyl (Glen Research, Sterling, Va.), wherein dT stands fordeoxythymidine. The oligonucleotides were purified using reverse phase chromatography on a RPC column (Pharmacia) as previously described (Heyduk, E., and Heyduk, T. Anal. Biochem. 248, 216-227, 1997). The fractions containing the oligonucleotides were dried in a vacuum centrifuge concentrator and subsequently dissolved in 50 μl of water. The concentration of the stock solutions of oligonucleotides was determined by recording the UV-VIS absorption spectrum of a small aliquot of the stock solution diluted to 400 μl. The CAP1 oligonucleotide (SEQ ID NO:1) was hybridized with CAP4 oligonucleotide (SEQ ID NO:4) to generate the CAP1/CAP4 duplex and CAP2 oligonucleotide (SEQ ID NO:2) was hybridized with CAP3 oligonucleotide (SEQ ID NO:3) to generate the CAP2/CAP3 duplex. […] All subsequent fluorescence measurements were performed at 25° C. in 50-mM Tris/HCl (pH 8.0), 100 mM NaCl (or 50 mM NaCl where indicated), 1 mM EDTA, 0.1 mg/ml BSA, and 200 μM cAMP in 200 μl quartz cuvette using Aminco-Bowman Series 2 spectrofluorometer. The excitation wavelength was at 490 nm and the emission was recorded from 500 to 650 nm. […]

[5] = target: T2, CAP (cAMP receptor protein); assay: competition; no effect up to 194.2 nM; 200 uM cAMP, 50 mM NaCl; details: chain copies: 2
Source text: as §1

Trp repressor (TrpR) [6] = target: T1, Trp repressor (TrpR); assay: FRET; two-color assay, TrpR only, no change in coumarin signal; 15 C
[7] = target: T2, CAP (cAMP receptor protein); assay: ratiometric FRET; 0-150 nM CAP, 200 uM cAMP, 25 C; details: chain copies: 2; label: 7-diethylaminocoumarin-3-carboxylic acid on amino-dT (CAP6), dT-fluorescein (CAP2); two half-site duplexes with short complementary overhangs
Method: In a second experiment (FIG. 9), the pair of CAP6/CAP1 and CAP2/CAP3 nucleic acid duplexes were tested for the performance in CAP assay. In this assay format, the 7-diethylaminocoumarin-3-carboxylic acid present in the CAP6/CAP1 duplex functioned as a fluorescence donor and the fluorescein present in the CAP2/CAP3 duplex functioned as an acceptor. In this case, both the donor as well as the acceptor are fluorescent. The experiment was performed at 25° C. in 50 mM Tris/HCl (pH 8.0), 100 mM NaCl, 1 mM EDTA, 0.1 mg/ml BSA, and 200 μM cAMP. […] The shoulder observed at about 520 nm is due to the residual emission of fluorescein, which is also to a small extent excited at 433 nm. Upon addition of varying amounts of CAP in a range from 0 to 150 nM (curves 2 -9), a pronounced quenching of the peak at 475 nm and a pronounced enhancement of the peak at 520 nm is observed. Recall that the emission maximum of fluorescein is 520 nm. […] Also, as shown in the inset of FIG. 9, the ratio between the fluorescence intensities at 520 nm and 475 nm may be used to determine the concentration of DNA binding proteins. This ratiometric mode of signal detection could be particularly useful since it would be less prone to trivial errors (such as pipetting errors, general quenching by some unrelated compounds present in the assayed sample).

Chain of Lac repressor (LacR) (P03023 whole entry, one chain of several): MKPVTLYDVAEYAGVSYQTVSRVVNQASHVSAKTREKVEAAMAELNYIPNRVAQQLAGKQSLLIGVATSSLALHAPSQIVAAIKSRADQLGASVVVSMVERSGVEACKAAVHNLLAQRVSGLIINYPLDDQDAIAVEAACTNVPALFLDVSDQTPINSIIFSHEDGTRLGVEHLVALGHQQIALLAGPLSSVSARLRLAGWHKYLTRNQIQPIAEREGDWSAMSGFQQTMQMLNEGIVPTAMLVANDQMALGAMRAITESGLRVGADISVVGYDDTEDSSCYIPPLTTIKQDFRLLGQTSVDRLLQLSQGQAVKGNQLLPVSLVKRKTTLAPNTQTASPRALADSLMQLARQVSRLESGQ

B1: LAC1/LAC4 + LAC2/LAC3 (dsDNA)
DNA 1: GGTGTGTGGAATTGTGA
DNA 2: ATACGCTCACAATTCCACACACC
DNA 3: GCGTATAACAATTTCACACAGG
DNA 4: CTTGTGTGAAATTGTT
modifications: [strand 2: T2 (N, modified T); strand 3: T4 (N, modified T)]
- binding result (Trp repressor (TrpR) [1]): no binding
- binding result (Lac repressor (LacR)): binds

B2: TRP1/TRP4 + TRP2/TRP3 (dsDNA)
DNA 1: GAGATCTATCGAACTA
DNA 2: GTTTACTAGTTCGATAGATCTC
DNA 3: GTAAACTAGTACGAAACTAGAG
DNA 4: CTCTAGTTTCGTACTA
modifications: [strand 2: T2 (N, modified T); strand 3: T2 (N, modified T)]
- binding result [2]: no binding

B3: P1/P4 + P2/P3 (dsDNA)
DNA 1: GCATCGGTCACAGACA
DNA 2: TGTCTAGGCATGTCTGTGACCGATGC
DNA 3: TGCCTAGACATGCCTTGCAGTCTCGA
DNA 4: TCGAGACTGCAAGGCA
modifications: [strand 2: T5 (N, modified T); strand 3: T5 (N, modified T)]
- binding result (p53): binds

B4: CAP1/CAP4 + CAP2/CAP3 (dsDNA)
DNA 1: AACGCAATAAATGTGA
DNA 2: TCTACTTCACATTTATTGCGTT
DNA 3: AGTAGATCACATTTTAGGCACC
DNA 4: GGTGCCTAAAATGTGA
modifications: [strand 2: T3 (N, modified T); strand 3: T3 (N, modified T)]
- binding result (Trp repressor (TrpR) [3]): no binding

B5: SP1 duplex (dsDNA)
DNA 1: CCTAAAATGTGATCTAGATCACATTTATTG
DNA 2: CAATAAATGTGATCTAGATCACATTTTAGG
- binding result [4]: binds

B6: NSP1 duplex (dsDNA)
DNA 1: GCATCGGTCACTGCAGTCTCGACAGCTACG
DNA 2: CGTAGCTGTCGAGACTGCAGTGACCGATGC
- binding result [5]: no binding

B7: CAP5/CAP3 + CAP4/CAP1 (dsDNA)
DNA 1: AGTAGATCACATTTTAGGCACC
DNA 2: GGTGCCTAAAATGTGA
DNA 3: TCTACTTCACATTTATTGCGTT
DNA 4: AACGCAATAAATGTGA
modifications: [strand 1: T3 (N, modified T); strand 3: T3 (N, modified T)]
- binding result (Trp repressor (TrpR) [6]): no binding

B8: CAP6/CAP1 + CAP2/CAP3 (dsDNA)
DNA 1: TCTACTTCACATTTATTGCGTT
DNA 2: AACGCAATAAATGTGA
DNA 3: AGTAGATCACATTTTAGGCACC
DNA 4: GGTGCCTAAAATGTGA
modifications: [strand 1: T3 (N, modified T); strand 3: T3 (N, modified T)]
- binding result [7]: binds

Source: patent US20030049625, “Rapid and sensitive proximity-based assay for the detection and quantification of DNA binding proteins” (Saint Louis University, published 2003)
